Reference: US20130058911

System: metmyoglobin

Substance	metmyoglobin reduction activity (change in A406 with NADH)
recombinant malate dehydrogenase (MDH) of Bacillus natto with C-terminal 6x His-tag	the activity of MDH was not found
recombinant putative NAD(P)H nitroreductase (yodC) of Bacillus natto with C-terminal 6x His-tag	the activity of yodC was confirmed
